Key:
[1] = target: T1, HMGA1b (full length) (UniProt P17096-2 P17096-2:1-96); experiment: EMSA; nearly completely shifted at DNA:HMGA1 1:1.5; 25 mM Tris-HCl pH 6.5, 50 mM NaCl, 4 C; conditions: tags: expressed from pET-30b in E. coli BL21(DE3); TCA precipitation and Sephadex G-25; label: 5'-6-FAM
Procedure: (§1) The HMGA protein samples were prepared in 25 mM Tris-HCl (pH 6.5), 50 mM NaCl, and the concentrations determined based on UV […] absorbance (ε=38,200 mol-1 cm-1). […] Nature structural biology 4 (1997) 657-665, the disclosure of which is incorporated herein by reference in its entirety and incubated at 4° C. for 15 minutes prior to gel analysis. The protein-DNA complexes were resolved on a 7.5% polyacrylmide gel and run with TAE buffer at 20 mA for 2-3 hours at 4° C. The DNA was detected at 495 nm using the VersaDoc™ Imaging System Model 3000 from BIO-RAD Laboratories, Inc. of Hercules, Calif. (USA). The gels were further stained with coomassie blue and visualized by an AlphaImager (Alpha Innotech, San Leandro, Calif.).

[2] = target: T1, HMGA1b (full length); experiment: competition; equal amount did not interfere with HMGA1-ATf10 complex; 1:1 ATf10:HMGA1; conditions: tags: expressed from pET-30b in E. coli BL21(DE3); TCA precipitation and Sephadex G-25
Procedure: as §1

[3] = target: T1, HMGA1b (full length); experiment: competition; about half of ATf10 displaced at 1:1 ATf10:ATs10; similar affinity to unmodified DNA; conditions: tags: expressed from pET-30b in E. coli BL21(DE3); TCA precipitation and Sephadex G-25
Procedure: as §1

T1 sequence (P17096 other isoform, or with tags, fused parts or gaps): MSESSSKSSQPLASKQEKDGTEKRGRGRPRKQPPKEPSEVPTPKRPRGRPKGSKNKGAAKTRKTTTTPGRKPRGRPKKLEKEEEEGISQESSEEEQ

B1: ATf10 (dsDNA)
DNA 1: CGCGGGGCCGCCGCGAAAAAAAAAAACCC
DNA 2: GGGTTTTTTTTTTTCGCGGCGGCCCCGCG
B1: binds [1].

B2: Mix10 (dsDNA)
DNA 1: GGGCGTGACTGAGCGCGGCGGCCCCGCG
DNA 2: CGCGGGGCCGCCGCGCTCAGTCACGCCC
B2: no binding [2].

B3: ATs10 (dsDNA)
DNA 1: GGGTTTTTTTTTTCGCGGCGGCCCCGCG
DNA 2: CGCGGGGCCGCCGCGAAAAAAAAAACCC
modifications: PS at the T10 tract linkages of the printed strand (GGGT*T*T*T*T*T*T*T*T*T*CGCG..); complementary strand unmodified
For B3, the binding signal [3] was about 1 fold affinity vs ATf10.

B4: CG10 (dsDNA)
DNA 1: GGGCCCCCCCCCCCGCGGCGGCCCCGCG
DNA 2: CGCGGGGCCGCCGCGGGGGGGGGGGCCC
B4: no binding [2].
